According to article PMC6952535:

Target: 6xHis-hSTAT3_(136-705) (human) (UniProt P40763)
Test: ITC

Chain of UniProt P40763 (P40763 136-705): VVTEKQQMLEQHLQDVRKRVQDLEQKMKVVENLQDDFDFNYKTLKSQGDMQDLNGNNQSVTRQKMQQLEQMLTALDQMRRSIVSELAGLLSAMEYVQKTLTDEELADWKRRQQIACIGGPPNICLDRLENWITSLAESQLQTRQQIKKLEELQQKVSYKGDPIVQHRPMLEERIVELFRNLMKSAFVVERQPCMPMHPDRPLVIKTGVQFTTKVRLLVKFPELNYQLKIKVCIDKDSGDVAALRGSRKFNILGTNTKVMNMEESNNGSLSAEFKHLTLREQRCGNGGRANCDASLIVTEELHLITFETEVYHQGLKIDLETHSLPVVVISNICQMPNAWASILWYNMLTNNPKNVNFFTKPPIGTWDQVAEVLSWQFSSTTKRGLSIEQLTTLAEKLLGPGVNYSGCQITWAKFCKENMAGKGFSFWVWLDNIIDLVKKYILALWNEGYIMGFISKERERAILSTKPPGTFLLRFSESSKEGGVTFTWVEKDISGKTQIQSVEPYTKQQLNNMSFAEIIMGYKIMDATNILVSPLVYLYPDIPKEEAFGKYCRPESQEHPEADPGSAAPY

Row | Substance | Kd [µM]
1 | SarA phospho-peptide (ten residues spanning the YxxQ motif, phosphorylated at Y167) | 0.143
2 | gp130 phosphopeptide containing YxxQ (phosphorylated at Y767) | 2.29
